Data taken from patent US20240101638A1 (CURRUS BIOLOGICS, published 2024).
Several values for one entry are separate records, joined by “and”; a condition that tells them apart may be missing. Identical values can stand only once.

Target: T1, Mesothelin (Homo sapiens (Human), UniProt Q13421 296-598)
T1 construct: Soluble analyte in SPR at 0.15-111 nM
Assay: SPR, antibody as ligand, mesothelin as analyte

T1 sequence (Q13421 other isoform, or with tags, fused parts or gaps limits assumed): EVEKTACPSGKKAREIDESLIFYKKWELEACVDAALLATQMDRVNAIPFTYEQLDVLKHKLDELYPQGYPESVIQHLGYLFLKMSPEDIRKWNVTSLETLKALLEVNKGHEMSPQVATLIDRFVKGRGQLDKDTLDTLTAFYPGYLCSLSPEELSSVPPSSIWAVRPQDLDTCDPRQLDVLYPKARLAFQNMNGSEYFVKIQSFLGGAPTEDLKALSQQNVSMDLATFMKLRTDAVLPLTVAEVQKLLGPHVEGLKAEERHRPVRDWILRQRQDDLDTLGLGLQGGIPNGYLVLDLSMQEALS

Kd: 912 pM and 658 pM
koff: 0.000189 s⁻¹ and 0.000132 s⁻¹
kon: 207000 M⁻¹ s⁻¹ and 201000 M⁻¹ s⁻¹
B1: 7B1 IgG1 LALA anti-mesothelin antibody (antibody, V domains shown)
VH: EVHLVESGGGLVQPGGSLRLSCAASGFTFSRYWMSWVRQAQGKGLEWVASIKQAGSEKTYVDSVKGRFTISRDNAKNSLSLQMNSLRAEDTAVYYCAREGAYYYDSASYYPYYYYYSMDVWGQGTTVTVSS
VL: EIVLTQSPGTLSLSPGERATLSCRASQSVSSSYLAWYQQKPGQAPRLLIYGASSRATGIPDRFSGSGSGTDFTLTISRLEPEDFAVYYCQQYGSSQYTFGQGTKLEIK
notes: Tested as IgG1 with LALA mutations; It was the immobilised ligand in the SPR; two samples were measured; also called 7B1 IgG1 LALA AA cAb7385-10.16; 7b1 IgG1 LALA - Sample 1
